Results on five sequences are retold here after a protein production outcome set (Wang et al. 2014).

The nature of this data set: label from the status in PepcDB records.
Turning to “MSKHVLRLALVGNPNSGKTALFNRLTGSRQKVANYPGVTVERKEGYFRASSGREFVILDLPGAYSFQPASFDEAITRDFCRGFYPGEAPPDVLVCVVDATNLRLHLRFVLELIELGRPVVVALNMVDAAQRRGIRIDRVILEQLLGVPVVETVAVRRHGARALLEQLDTGVIPLPAPVPALAAGDQYHAQVRHILDAAVKMPSRTSRVDDALDRWLLHPVFGLVVLTVVMFLIFQAVYAWAAPLVSLIEGSTTVLGHWVGNRLPDGPLRSLVVDGIITGIGGVLMFLPQILILFAFILALEESGYLPRAAFLLDRLMVLAGLSGRSFIPLLSSFACAVPGIMSTRSIQDPRDRLVTILVAPLMTCSARLPVYTLLIGAFVPRKSLWGPINQQGLVLFGLYMAGIFSALVVSWTVKKWRRGTSEHPLLLELPSYRLPHSRDLLLGLWERAVIFLKRVGGIILALTILLWFLLAFPEPPSGAIGPAIQYSFAGRIGHVIAVFFAPLGFSWQICIALIPGLAAREVAVSSLATVYALSASNEEMAVRALSPLIQDGWSLATALSLLVWYIYAPMCISTLVTIKRETNSWKHMAMTAGYLFALAYLAALATYQVALLLGAG”, the protein production entry is listed as “failed”.
Turning to “MSKIGRNDPCPCGSGKKYKQCCFHRATSAAATPDAEMLWRAGNAHLAGGALDMALSCYREAVRLRPGFAQAHYNLGVVFQQKGLLDEAAASFRSAISFNRDYAKAYNNLGYILATQGRLDESADCFNRAIAIEPGFAAAYHNLGTTLRHQGRLDETLAAFRTAHAINPHDPVFHSDLLMMLHYSDMDDETLFREHVRWGEQHAPAAASVPTHQCDRDPGRKLRIGYVSGDFGKHPVGYFLLPFLENHDRSQFEICCYSERGQRQEDDVTARIKGHADLWRRTIGLGDAAVAEMIRADGIDILVDLAGHTAHNRLRVFALKPAPVQVTWLGYPNTTGLRAMDYRITDAVADPPGSADALHTEQLIRLEQGFLCYTPPAGAPPVGEAPCLAGAGVTFGSFNNLAKVSPQVIDAWSAILGRVPGSRLMLKFKGFADETCRRRVSDAFGARGVSPDRLELVSFVENFNDHLALYNRLDLALDTFPYNGTATTCDALWMGVPVLTCCGTRHVARVGASILTSLGLPELITHSPEEYISAAAALAADPARLAALRRDMRPRLAASPLCDPTGFARRMETALRDIWRRWCSA”, the protein production result is “failed”.
As for “MSKISDNHDHSALQFMKKKVRENGSRDIRQIYVPAYTQVPLPNNMKKQIFFWLGALIFFILFMLVFGSILLPFVAGIVLAYFLNPIVQLLEKFRIRRVFGTILITLFIVVVFVAALIILIPIISWQIQQFMNDGLPVYINRIQTFFVEHDFDWVRRYFGSDPNELQSNIKGLLGQSSDFITSLLNSLLKSGKSLVNIVSLFVVAPVVAFYMLLDWPRMVTAVDSLIPRDHLETVRSIFHEMDRAIAGFVRGQGTACLILGGYYAIGLTITELNFGLLIGMFIGLISFVPYIGTMSGFLLSVGVAWVQFYPNNWGWIIVVMVIFLIGQFIEGYILQPKLVGSSVGLHPVWLMFALFAFSSLFGFTGMLIAVPAAAAVGVLVRFALHTYLNSQMYSRSGNSERLE”, the protein production entry is on record as “failed”.
The same measure for “MSKKINELLRYCEENYIERGSLELALRCAVSICKANPDAPQAYAHVAAYRILLTAANYRTVTGEPDWYAVLGINKRGSSKSVVNAIDRRCEEIIEVLDGETGVSKAVSRVYDLVRLGVSELMDEDRRRAYDLRSGFSIIN”: “failed”; for “MSKKKSAAMTLKDFHGGSIPSDLPLPSAPGVTPKVIPDRPVFDRAPWGNSIGRPDQRARPSSSHAIRNLDDKSLFLPHNVNIGRNFSEDERKPLDGHSAPRRVVSDDVFRFANNRLEMKADSVLAGRHSGWAAGPLTHSGTGNIENSVSGNHSNIWNGRKEVSVANNEPGQSPWTKQPAVSNLVHTSALDQVSSGGWQSKLLVPSQMGFDVVKHSEIDTRVYKTNSPVISQGVEPHGTHVERALIAEDGIQRGKKLSREYEKIPGPTYVDAKEAKIVANTNDKPHPKYSDVKPAGHLVQPTAPSEVVERPKLNLLPRTKPLESVEKPVNDEKLENSASVLIQRENATQKSFNNSKSGLSTDEIPNQPAERPKLNLKPVAQLLEQPEVKTEKDRSAVFGGARPRELVLKERGIDEPEHHKLDQPTDRMVLKPIERVPEHASQRPVSSPRDMRTRKFDQKDGRNVSDIARSETQRRNWRENENKSARQQQQTQEKTRHPSPETWRKPVPQKLDSPNGTGIRHGKAASALELAQAYSPFSDPKSGIGSSNSFNKSRNNQTQQQPFSRLVGSTTTGRQINGY”: “failed”.
